Measurements: article PMC6651862

Target: HCMV trimeric gH/gL recombinant protein (human cytomegalovirus, strain Merlin | T4 phage) (UniProt F5HCH8)
Experiment: native gel or EMSA

## HCMV trimeric gH/gL recombinant protein (from UniProt F5HCH8;Q6SW67)
  stoichiometry N: 3
